Assay: yeast display, Sf9 membrane polyspecificity reagent, FACS + sequencing; frameworks hold sequencing errors
Summary of the method: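 Polyreactivity labels are assigned by the sorting gate from which each nanobody was recovered. The gates were low and high (top ~1%), set on anti-HA fluorescence for expression and streptavidin fluorescence for reagent binding. Before sorting, galactose-induced (36–48 hours) yeast display cells were stained for 1 hour at 4 °C with 10% biotinylated, detergent-solubilized Sf9 membrane reagent.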

Row | Sequence | polyreactivity (PSR sort gate)
1 | QVQLVESGGGLVQAGGSLRLSCAASGFTFVKYAMGWYRQAPGKERELVAVISRRGGSTYYADSVKGRFTISRDNAKNTVYLQMNSLKPEDTAVYYCAAKVALPRTQEWEYGYWGQGTQVTVSS | high polyreactivity
2 | QVQLVESGGGLVQAGGSLRLSCAASGSIFPDYAMGWYRQAPGKERELVAGISSNSGSTYYADSVKGRFTISRDNAKNTVYLQMTSLKPEDTAVYYCAKDSFWRDTGYTDGDYWGQGTQVTVSS | low polyreactivity
3 | QVQLVESGGGLVQAGGSLRLSCAASGSIFYRNAMGWYIQAPGKERELVAAISRRGGITYYADSVKGRFTISRDNAKNTVYLQMNSLKPEDTAVYYCYTDTGGMDYWGQGTQVTVSS | high polyreactivity
4 | QVQLVESGGGLVQAGGSLRLSSAASGRTFRYNAMGWYRQAPGKERELVAAIRRGGSTNYADSVKGRITISRDNAKNTVYLQMNSLKPEDTAFYFCAKGHPNDFGYWGQGTQVTVSS | high polyreactivity
5 | QVQLVESGGGLVQAGGSLRLSSAASGRIFVYNAMGWYRQAPGKERELVAGISWSGARSHYADSVKGRFTISRDNAKKTVYLLMNSLKPEDTAVYYCAAYPQYRSFQYDYWGQGTQVTVSS | high polyreactivity
6 | QVQLVESGGGLVQAGGSLRLSCAASGRTIKYYAMGWYRQAPGKERELVAVISWSGGSTYYADSVKGRFTISRDNAKNTVYLQMNSLKPEDTAVYYCNAVHQYRRRYNYWGQGTQVTVSS | high polyreactivity
7 | QVQLVESGGGLVQAGGSLRLSCAASGRIFLVYAMGWYRQAPGKERELVAAISWRGGRTYYADSVKGRFTISRDNAKNTFYLQMNSLKPEDTAVYYCAAASKYSQFEYDYWGQGTQVTVSS | high polyreactivity
8 | QVQLVESGGGLVQAGGSLRLSCAASARIFTAYAMGWYRQAPGKERELVASISTSGGRTYYADSVKGRFTISRDNAKNTVYLQINSLKPEDTAVYYFAADFESYSRYYDGYDYWGQGTQVTVSS | high polyreactivity
9 | QVQLVESGGGLVQAGGSLRLRCAASGGIFGLYTMGWYRPAPGKERELVAGISKRGTRTRYADSVKGRFTISRDNAKNTVYIQMTSLKPEDTAVYYCNADYYVSKLDYWGQGTQVTVSS | high polyreactivity
10 | QVQLVESGGGLVQAGGSLRLSCAASRRTFKPYAMGWYRQAPGKERELVARISGSGGSTYYADSVKGRFTISRDNAKNTVYLQMNSLKPEDTAVYYCATTPYYWFDYWGQGTQVTVSS | low polyreactivity
11 | QVQLQESGGVLVQAGGDLRLSCAASGNIFRDYIMGWYRQAPGQERDFVAGIDRGANTNYADSVKGRFTISRDNAKNTVYLQMNSLKPEDTAVYYCAVHTAIVPDFIYWGQGTQVTVSS | low polyreactivity
12 | QVQLVESGGGLVQAGGSLRLSCAASGSIFAAYTMGWYRQAPGKERELVAAISVSTVSTYYADSVKGRFTISRDNAKNTVYLHMNSLKPEDTAVYYCNADATDSYPEKDDHDSWGQGTQVTVSS | low polyreactivity
13 | QVQLVESGGGLVQAGGRLRLSCAASGIIFFWYVRGWYRQAPGKERELVAAINRGGITNYADSVKGRFTISRDNAKNTVYLQMNSLKTEDTAVYYCNKDWKTESWFNRYGGYGIEDDYWGQGTQVTVSS | high polyreactivity
14 | QVQLVESGGGLVQAGGSLRISCAASGFTFVAYAMGWYRKAPGKERELVAAISRRGGTTYYADSVKGRFTISRDNAKNTVYLQMNSLKPEDTAVYYCNARGFPGKFGYWGQGTQVTVSS | high polyreactivity
15 | EEELVESGGGLVQAGGSLRLSCAASGRIFGPYAMGWYRQAPGKEREFVAAISGGGGNTYYADSVKGRFTISRDNAKNTVNLQMNSLKPEDTAVYYCAAQHVPRWWWYAPVKYDYWGQGTQVTVSS | low polyreactivity
16 | QVQLQESGGGLVQAGDSQRLSCAASGNIFRFTDRGWYRQAPGKERELVAAINAGSTTYYADSVKGRFTISRDNAKNTVYLQMNSLKPEDTAVYYCAVYYLGSGTFGYWGQGAQVTVSS | high polyreactivity
17 | QVQLVESGGGLVQAGGSHRLSCAASGRTFRINAMGWYRQAPGKERELVAAISRSGGSTYYADSVKGRFTISRDNAKNTVYLQMTSVKPEDTAVYYCAARPYYTWRYLPTKSGDYWGQGTLVTVSS | low polyreactivity
18 | QVQLVESGGGLVHAGGSLRLSCASSGSALFWNAMGWYRQAPGKERELVATITNSGGSTYYADSVKGRFTISRDNAKNTVYLQMNSLKPEDTAVYYCNADESAYWKLRHGLGSDSWGQGTQVTVSS | low polyreactivity
19 | QVQLVESGGGLVQAGGSLRLSCAASGRIFDANVMGGYRQAPGKERELVAAISSGGRTKYADSVKGRFTISRDNAKNTVYLQMNSLKPEDTAVYYCAKKHSPLYDYWGQGTQVTVSS | low polyreactivity
20 | QVHLVESGGGLVQAGGSLRLSCAASGAMGWYRQAPGKERELVAAISSGNTNYADSVKGRFTISRDNAKNTVYLQMNSLKPEDTAVYYCAAEQPYGQKNTGLGVIDLDYWGQGTQVTVSS | low polyreactivity
21 | QVQLVESGGGLVQAGGSLRVSCAASGFTFGPNAMGWYSQAPGKERELVAAISQSGGSTYADSEKGRFTISRDNAKNTDYLHMNSLKPEDTAVYYCAAEFPDYYWWYEYWGQGTQVTVSS | high polyreactivity
22 | QVQLVESGGGLVQAGGSLRLSCAASGRIFGQNAMGWYRQAPGKERELVAAITGSGGRTYYADSVKGRFTISRDNAKNTVYLQMNSQKPEDTAVYYCAVRVTSYYRTMDYWGQGTQVTVSS | low polyreactivity

Row | Sequence | polyreactivity (PSR sort gate)
23 | QVQLVESVGGLVQAGGSHRLSGAASGRTLYRYGLGWYRQAPGKDRELVAVIDRGGSTNYADSVKGRFTISRDNAKNTVYLQMNSLKPEDTAVYYCAKRWTAREAWRKGMGYWGQGTKVTVSS | high polyreactivity
24 | QVQLVESGGGLVQAGGSLRLSCAASGFTFSNNAMGRYRQAPGKEREFVAAISGTGGSTYYADSLKGRFTISRDNANNTVYLQMNSLKPEDTAVYYCARRRTYPPGRYYYWGQGTQETVSS | high polyreactivity
25 | QVQLVESGGGLVQAGGSLRLSCAASGRIFVPNPMGWYRQAPGKDRELVAAITNGGRTKYADSVKGRFTISRDNAKNTVYLQMNSLKPEDTAVYYCAADLYRWFYYWGQGTQVTVSS | high polyreactivity
26 | QVQLVESGGGLVQAGGSLRLSCAASGSIFIINTMGWYRQAPGKERELVAAISWGGTDTNYADSVKGRFTISRDNAKNTVYLQMNSLKPEDTAVYYCNTDQDLVRSYDYWGHGTQVTVSS | low polyreactivity
27 | QVQLVESGGCLVQAGGSLRLSCDASGIIFRGNAMGWYRHAPGTERELVAAISSAGSTNYSDSVKGRFTISRDNAKNTVYLQMNSLKPEDTAVYYCAKGSIKYHVTLRGRGYYWGQGTQVTVSS | low polyreactivity
28 | QVQLVASGGGLVQAGGSLLLSCAASGSIFDYNAMGWYRKAPGKERELVAAISSSGGSTYYADSVKGRFTISRDNAKNTVYLQMNSLKPEDTAVYYCNNVSRYILGSGYGYWGQGNQVTVSS | high polyreactivity
29 | QVQLVESGGGLVQAGGSLRLSCAASGFIFGRYAMGWYRQAPGKERELVAAISSGDDTDYADSVKGRFTISRYNAKNTVYLLMNSLIPEDTAVYYCARSRFWSPVNYRRTIEFDSWGQGTQVTVSS | low polyreactivity
30 | QDQLVESGGGLVQAGVSLRLSCAASGIISSDNAMGWYRQAPGKERELVAAITVSGGSTYYADSVKRRFTISRDNAKNTVYFQMNSLKPEDTAVYYCAADYSLEYGFDYWGQGTQVSVSS | low polyreactivity
31 | QVQLVESGGGLVQAGGSLRLSCAASGRIFVYNVMGWSRQSPGKERELVAAISWGTGSTYADSVKGRFTISRDNAKNTVYLQMNSLKPEDTAVYYCAADWLSTKNDYWGQGTQVTVSS | low polyreactivity
32 | QVQLVESGGGLVQAGGSLRLSCAASGFPFAKNAMGWYRQAPGKERELVAVITSSGGSTYYADSVKGRFTISRDNAKNTVYLQMNCLKPEDTAVYYCNVAYYYRSRSTGYEYWGQGTQVTVSS | high polyreactivity
33 | QVQLVESGGGIVQAGGSLRLSCAASGRIFGGNAMGWYRQAPGKERELVADISYGGGSTNYADSVKGRFTISRDNAKNTVYLQMNSLKPVDTAVYYCARDAWNTDGAYIGGDYDYWGQGTQVNVSS | low polyreactivity
34 | QVQLVESGGGLVQAGGSLRLSCAASGRIFDDNAMGWYRQAPGKERELVASITVSTGSTYYADSVKGRFTISRDNAKNTVYLQMNSLKPEDTAVSYCAAPYITPYGTYVFSSDYWGQGTQVTVSS | low polyreactivity
35 | QVQLVESGGGLVQAGGSLRLSCAASGSSFVRNGMGWYRQAPGKERELVASIRGSGSRTYYADSVKGRFTISRDNAKNTVYLQMNSLKPEDTAVYYCAAGYWRYYHYPPASGYWGQGTQVTVSS | high polyreactivity
36 | QVQLVESGGGLVQEGGSLRLSCAASGLIFGRYAMGWYRQAPGKERELVAAISSSGVRTYYADSVKGRFTISRDNAKNTVYLQMNSLKPEDTAVYYCAAAYWSSRDDTVIKRYYWGQGTQVTVSS | high polyreactivity
37 | QVQLVESGGGLVQAGCSLRLSCAASGSTFPYNAMGWYRQAPGKERELVATIDATGGSTSYADSVKGRFTISRDNAKNTVYLQMNSLKPEDTAVYYCAAVAYILYFYAYYLTYDYWGQGTQVTVSS | low polyreactivity
38 | QVQLVESGGGLVQAGGSLRLSCAASGFSSVRNDMGWYRQAPGKERELVAAISSGDTKDYADSVKGRFTISRDNAKNTVYLQMNSLNPEDTSVYYCAAVYYGRYYYWGQGTQVTVSS | low polyreactivity
39 | QVQLVESGGGLVQAGGSLRLSCAASGSIFLQNAMGWYRQAPGKERELVAAITNGGSTNYADSVKGRFTISRDNAKNTVYLQMNSLKPEDSAVYYCAAYPLYTGSYDRGGYWGQGTQVTVSS | low polyreactivity
40 | QVQLVESGGGLVQAGGSLRLSCAATGSTFGPYVMGWYRQAPGKERELVAVISGGSTDYADSVKGRFTISRDNAKNTVYLQMNTLKPEDTAVYYCNAVLYVQDRLTRVDYDYWGQGTQVTVSS | high polyreactivity
41 | QVQLVDSGGVLVQAGGSLRLICAASGNTFAYYTLGWYRQAPGKEMELVAAIDYSGGSTYYADSVKGRFTISRDNAKNTVYLQMNSLKPEDTAVYYCASDYRWHFSESLGWFYEYGYWGQGTQVTVSS | low polyreactivity
42 | QVQLVESGGGLVQAGGSLRLSCAASGIIFVYNTMGWYRQAPGKERELVAAISYSGGGTYYADSVKGRFTISRDNAKNTVYLQMNSLKPEDTAVYYCAAETYYAPYDYWGQGTQVTVSS | high polyreactivity
43 | QVQLVESGGGLVQAGGSLRLSCAASGYTFRQYTIGWYRPAPGKERELVDAISRSGGSTYYADSVKGRFTISRDNAKNTVFLQMNSLKPEDTAVYYCNAEGYGRTDGFGYDYWGQGTQVTVSS | high polyreactivity

Source: the nanobody polyreactivity screen of Harvey et al. (2022)
